This sample holds only a part of the variants without activity.
B1: TPR 5TU (parent)
chain: GGAUCUUCUCGAUCUAACAAAAAAGACAAAUCUGCCACAAAGCUUGAGAGCAUCUUCGGAUGCAGAGGCGGCAGCCUUCGGUGGCGCGAUAGCGCCAACGUUCUCAACUAUGACACGCAAAACGCGUGCUCCGUUGAAUGGAGUUUAUCAUG

Variants of: B1
Experiment: polymerase ribozyme fitness, log enrichment relative to wild type (log ratio); higher = more active; in vitro selection for triplet polymerase activity
How it was run: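 For each subunit of a heterodimeric triplet polymerase ribozyme, a mutant library was built by PCR and transcribed, then taken through a single in vitro selection round in triplicate. Selection involved annealing to a biotinylated primer, the partner subunit and triplets, incubation frozen at −7 °C, gel excision of extended constructs, capture on streptavidin beads and RT-PCR. Genotypes were retained after Illumina sequencing of inputs and outputs only with ≥10 input reads and ≥1 read in each output. Fitness is defined as the logarithm of a genotype's enrichment relative to wild-type enrichment, using inverse-variance-weighted averages across replicates, with the logarithm taken to base 2.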

Variant	polymerase ribozyme fitness (log ratio)
GGAUCUUCUCGAUCUAACACAAAAGACAAAUCUGCCACAGAGCUUGAGAGCGUCUUCGGAUGCAGAGGCGGCAGCCUUCGGUGGAGCGAUAGCGCCAGCGUUCUCAACUAUGACACGCAAAACGCGUGCUCCGUUGAAUGGAGUUUAUCAUG	-4.01
GGAUCUUCUUGAUCUAACAAAAAAGACAAAUCUGCCACAAAGCUUGAGAGCAUCUUCGGAUGCAGAGGCGGCAGCCUUCGGUGGCGCGAUAGCGCCAACGUUGUCAACUAUGACACGCAAAACGCGUGCUCUGUUGAAUGGAGUUUAUCAUG	≤ -4.2
GGAUCUUCUCGAUCUGACAAAAAAGACAAAUCUGCUACAAAGCUUGAGCGCAUCUUCGGAUGCAGAGGCGGCAGCCUUCGGUGGCGCAAUAGGGCCAACGUUCUCAUCUAUGACACGCAAAACGCGUGCUCCGUUGAAUUGACUUUAUCAUG	≤ -4.2
GGAUCUUCUCGAUCUAACAAAAAAGACAAAUCUGCCACAAAGCUUGAGAGCAUCUUCGUAUGCAGAGGCGGCAGCCUUCGGUGGCGCGAUUGCGCCAACGUUCUCAACUAUGACACGCAAAACGCGUGCUCCGUUGAAUGGAGUUUAUCAUG	-4.12
GGAUCUUCUCGAUCUAACAAAAAAGACAAACCUGCCACAAAGCUUGAGAACAUCUUCGGAUGCAGAGGCGGCAGCCUUCGGUGGCGCGAUAGCGCGAACGUUCUCAACUAUGACACGCAAAACGCGUGCUCCGUUGAAUGGAGUUUAUCAUG	-0.777
GGAUCUUCUCGUUCUAACAAAAAAGACAAAUCUGCCACAAAGCUUGAGAGCAUCUUCGGAGGCAGAGGCGGCAGCCUUCGGUGGCGCGAUAGUACCAACGUUCUCAACUAUGACACGCAAAACGCGUGCUCCGUUGAAUGGAGGUUAUCAUG	-2.83
GGAUCUUCUCGAUCUAACAAAAAAGACAAAUCUGCCACAAAGCUUGAGAUCAUCUUCGGAUGCAGAGGCGGCAGCCUUCGAUGGCGCGAUAGCGCCAACGUGCUCAACUAUGACACGCAAAACGCGUGCUCCGUUGAAUGGAGUUUAUCAUG	-2.74
GGAUCUUCUCGAUCUAACAAAAAAGACAAAUCUGCCACAAAGCUUGAGAGCAUCAUCGGAUGCAGAGGCGGCAGCCUUCGGUGGCGCGAUAGCGCCAACGUUCUCAACUAUGACAGGCAAAACGCGUGCUCCGUUGAAUGGAGUUUAUCAUG	0.374
GGAUCUUAUCGAUCUAACAAAAAAGACAAAUCUGCCACAAAACUUGAGAGCAUCUUCGUAUGCAGACGCGGCAGCCUUCGGUGGCGCGAUAGCGCCAACGUUCUCAACUAUGACACGCAAAACGCGUGCUCCGUUGAAUGGAGUUUAUCAUG	≤ -4.2
GGAUCUUCUCGAUCUAACAAAAAAGACAAAUCUGCCACAAAGCUUGAGAGCAUCUUCGGAUGGAGAGGCGGCAGCCUUCGGUGGCGCGAUAGCGCCAACGUUCUCAACUAUGACACGCAAAACGCGUGCUCCGUUGAAUGGAGUUUAUCAUG	0.136
GGAUCUUCACGAUCUAACACAAAAGGCUAAUCUGCCACAAAGCUUGAGAGCAUCUUCGGAUGCAGAUGCGGCAGCCUUCGGCGGCGCGAGAGCGCCAACGUUCUCAACUAUGACACGCAAAACACGUGCUCCGCUGAAUGGAGUUAAUCAUG	≤ -4.2
GGAUCUUCUCGAUCUAACAAAAAAGACAAAUCUGCCAUAAAGCUUGAGAGCAUCUUCUGAUGCAGAGGCGGCAGCCUUCGGUGGUGCGAUAGCGCCAACGUUCUCAAAUAUGACACGCAAAACGCGUGCUCCGAUGAAUGGAGCUUAUCAUG	≤ -4.2
GGAUCUUCUCGAUCUAACAAAAAAGACAAAACUGCCACAAAGCUUGAGAGCAUCUUCGGAUGCAGAGGCGGCAGCCUUCGGUGGAGCGAUAGCGCCAACGUUCUCAACUAUGACACGCAAAACGCGUGCUCCGUUGAAUGGAGUUUAUCAUG	-0.724
GGAUCUUCUCGAUCUAACAAAAAAGACAAAUCUGCCACAAAGCUUGAGAGCAUCUUCGGAUGCAGAGGGGGCAGCCUUCGGUGGAGCGAUAGCUCCAACGUUCUCAACUAUGACACGCAAAACGCGUGCUCCGUUGAAUGGAGUUUAUCAUG	-1.01
GGAUCUUCUCGAUCUAACAAAAAAGACAAAUCUGCCACAAAGCUUGCGAGCAUCUUCGGAUGCACAGGCGGCAGCCUUCGGUGGCGCAAUAGCGCCAACGUUAUCAACUAUGACACGCAAAACGCGUGCUCCGUUGAAUGGAGUUUAUCAUG	≤ -4.2
GGAUCUUCUCGAUCUAACAAAAAAGACAAAUCUGCCACAAAGCUUGAGAGCAUCUUCGGAUGCAGAGGCGGCGGCCUUCGGUGGCGCGAUAGCGCCAAUGUUCUCAACUAUGACACGCAAAACGCGUGCUCCGUUGAAUGGAGUUUAUCAUG	-0.979
GGAUCUUCUCGAUCUAACAAAAAAGACAAAUCUGCCACAAAGCUUGCGAGCAUCUUCGGAAGCAGAGGCGGCAGCCUUCGGUGGCGCGAUAGCGCCAACGUUCUCAACUAUGACACGCAAAACGCGUGCUCCGUUGAAUUGAGUGUAUCAUG	≤ -4.2
GGAUCUUCUCGAUCUAAUAAAAAAGACAAAACUGCCACAAAGCUUGAGAGCAUCUUCGGGUGCAGAGGCGGCAGCCUUCGGUGCCGCGCUAGCGCCAACGUUCUUAACUAUGACACGCAAAACGCGUGCUCCGUUGAAUGGAGUUUAUCAUG	-2.16
GGAUCUUCUCGAUCUAACAAAAAAGACAGAUCUACCACAAAGCUUGAGUGCAUCUUCGUAUGCAGAGGCGGCAGCUUUCGGUGGCGCGAUAGCGCCAACGUUCUCAAAUAUGACACGCGAAACGCGUGCUCCGUUGAAUGGAGUUUAUCAUG	≤ -4.2
